Earlier results in publication PMC4482139.

How the values were obtained:
nmMLCK1 (Homo sapiens) = nmMLCK1 (Homo sapiens) (UniProt Q15746)
nmMLCK2 (Homo sapiens) = nmMLCK2 (Homo sapiens) (UniProt Q15746)

Kd (nmMLCK1 (Homo sapiens)): 1000 nM
Kd (nmMLCK2 (Homo sapiens)): 250 nM
Substance: Cortactin (from UniProt Q14247)
